Measured values taken from article PMC5870375, “Amyloid-beta modulates microglial responses by binding to the triggering receptor expressed on myeloid cells 2 (TREM2)” (Molecular Neurodegeneration, 2018).

B1: sTREM2-Fc fragment carrying residues 1–51 (Fc fusion, human, UniProt Q9NZC2 19-51, looked up)
chain: HNTTVFQGVAGQSLQVSCPYDSMKHWGRRKAWC
notes: signal peptide in the construct; human TREM2, C-terminally truncated extracellular domain, residues 1-51
B2: sTREM2-Fc fragment carrying residues 1–131 (Fc fusion, human, UniProt Q9NZC2 19-131, looked up)
chain: HNTTVFQGVAGQSLQVSCPYDSMKHWGRRKAWCRQLGEKGPCQRVVSTHNLWLLSFLRRWNGSTAITDDTLGGTLTITLRNLQPHDAGLYQCQSLHGSEADTLRKVLVEVLAD
notes: signal peptide in the construct
B3: sTREM2-Fc fragment carrying residues 1–151 (Fc fusion, human, UniProt Q9NZC2 19-151, looked up)
chain: HNTTVFQGVAGQSLQVSCPYDSMKHWGRRKAWCRQLGEKGPCQRVVSTHNLWLLSFLRRWNGSTAITDDTLGGTLTITLRNLQPHDAGLYQCQSLHGSEADTLRKVLVEVLADPLDHRDAGDLWFPGESESFE
notes: signal peptide in the construct; human TREM2, C-terminally truncated extracellular domain, residues 1-151
B4: sTREM2-Fc fragment carrying residues 1–111 (Fc fusion, human, UniProt Q9NZC2 19-111, looked up)
chain: HNTTVFQGVAGQSLQVSCPYDSMKHWGRRKAWCRQLGEKGPCQRVVSTHNLWLLSFLRRWNGSTAITDDTLGGTLTITLRNLQPHDAGLYQCQ
notes: as for B2
B5: sTREM2-Fc fragment carrying residues 1–71 (Fc fusion, human, UniProt Q9NZC2 19-71, looked up)
chain: HNTTVFQGVAGQSLQVSCPYDSMKHWGRRKAWCRQLGEKGPCQRVVSTHNLWL
notes: signal peptide in the construct; human TREM2, C-terminally truncated extracellular domain, residues 1-71
B6: sTREM2-Fc fragment carrying residues 1–91 (Fc fusion, human, UniProt Q9NZC2 19-91, looked up)
chain: HNTTVFQGVAGQSLQVSCPYDSMKHWGRRKAWCRQLGEKGPCQRVVSTHNLWLLSFLRRWNGSTAITDDTLGG
notes: signal peptide in the construct; human TREM2, C-terminally truncated extracellular domain, residues 1-91

Target: T1, oligomeric amyloid-β 1–42 (UniProt P05067 672-713)
T1 construct: amyloid-beta 1-42, cut product of the amyloid precursor protein (APP); numbers count on: the Aβ peptide; Heterogeneous mixture of low-n and high-n oligomers, prepared without separation of monomeric Aβ; also called oAβ_(1–42); oAβ; source: synthetic peptide, bought: AnaSpec (AS-20276); oligomers made by incubation at 22 °C for 16 h, then 4 °C for 24 h, supernatant after 16,000×g
Assay: ELISA; solid phase binding assay: 96-well plate coated with 100 nM oAβ1-42 in PBS overnight at 4 °C, blocked with 4% BSA; purified Fc or sTREM2-Fc proteins in PBST with 0.5% BSA, 30 min at 37 °C; detected with biotinylated anti-Fc antibody, avidin-HRP, TMB, read at 620 nm
Conditions: both partners purified

Binding result, binds:
B1
B2
B3
B4
B5
B6
